Key:
[1] = target: human IL-23R on Kit-225 cells (human) (UniProt Q5VWK5); assay: cell-based or functional assay
[2] = target: human IL-23R-mouse Fc fusion protein (human; mouse) (UniProt Q5VWK5); assay: antigen ELISA, human IL-23R-mouse Fc immobilized, HRP anti-human IgG, chemiluminescence
[3] = target: monkey IL-23R-mouse Fc fusion protein (monkey; mouse); assay: antigen ELISA, monkey IL-23R-mouse Fc immobilized, HRP anti-human IgG, chemiluminescence

Sequence of human IL-23R on Kit-225 cells (human) (Q5VWK5 24-629 L310P limits assumed): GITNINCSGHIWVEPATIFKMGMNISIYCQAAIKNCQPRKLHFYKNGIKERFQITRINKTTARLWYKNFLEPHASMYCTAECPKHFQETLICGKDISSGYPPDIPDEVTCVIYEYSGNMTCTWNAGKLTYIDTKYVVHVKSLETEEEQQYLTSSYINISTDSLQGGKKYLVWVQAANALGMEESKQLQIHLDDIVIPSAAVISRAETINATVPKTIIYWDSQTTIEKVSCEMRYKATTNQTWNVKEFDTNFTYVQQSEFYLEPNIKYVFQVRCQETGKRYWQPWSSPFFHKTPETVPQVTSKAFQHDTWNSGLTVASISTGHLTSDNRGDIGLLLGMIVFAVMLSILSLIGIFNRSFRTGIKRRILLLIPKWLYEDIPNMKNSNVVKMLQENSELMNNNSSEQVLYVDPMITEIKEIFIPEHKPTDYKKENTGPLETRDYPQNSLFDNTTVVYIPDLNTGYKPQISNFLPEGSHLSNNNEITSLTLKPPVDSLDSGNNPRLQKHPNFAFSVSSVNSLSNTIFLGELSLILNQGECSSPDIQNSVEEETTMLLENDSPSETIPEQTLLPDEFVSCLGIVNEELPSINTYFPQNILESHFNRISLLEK
Sequence of human IL-23R-mouse Fc fusion protein (human; mouse) (Q5VWK5 24-353 L310P limits assumed): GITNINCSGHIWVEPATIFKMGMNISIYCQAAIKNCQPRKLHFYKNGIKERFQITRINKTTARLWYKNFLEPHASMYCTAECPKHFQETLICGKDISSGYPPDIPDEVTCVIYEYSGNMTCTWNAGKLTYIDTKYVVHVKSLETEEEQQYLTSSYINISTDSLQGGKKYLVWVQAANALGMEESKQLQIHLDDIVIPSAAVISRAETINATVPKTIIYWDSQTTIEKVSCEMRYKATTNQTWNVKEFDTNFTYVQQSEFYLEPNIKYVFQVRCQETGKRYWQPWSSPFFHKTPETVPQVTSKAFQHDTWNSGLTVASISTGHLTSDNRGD

B1: hum20D7 (antibody, from another filing, V domains shown)
VH: QVQLVQSGAEVKKPGASVKVSCKASGYTFTNYAMNWVRQAPGQGLEWMGWINTYTGEPTYSDDFKGRVTFTLDTSTSTAYMELRSLRSDDTAVYYCARGGGYDEDYFDYWGQGTLVTVSS
VL: DIVMTQSPLSLPVTPGEPASISCKSSQSLFNTINQKTYLAWYLQKPGQSPQLLIYFASTRESGVPDRFSGSGSGTDFTLKISRVEAEDVGVYYCQQHYDTPWTFGQGTKVEIKR
**Q.** With B1 as the binder, how does the Human IL-23-inducible Kit-225 cell proliferation inhibitory activity, IC50 [1] read?
**A.** 0.0276 µg/mL

**Q.** What about the EC50 [2] of the same binder?
**A.** 0.0452 µg/mL

**Q.** What about the EC50 [3] of the same binder?
**A.** > 10 µg/mL

— patent US20150126713A1
